Measured values from patent US20230036041A1, “SORTILIN BINDING CONJUGATE COMPOUNDS, COMPOSITIONS AND USES THEREOF FOR TREATING CANCER” (THERATECHNOLOGIES INC., priority 2019, published 2023).
Non-standard residues stand in square brackets, D forms with d. No end group written: not given here. Nle = CCCC[C@H](N)C(=O)O

Biological target: T1, sortilin (Homo sapiens, UniProt Q99523)
T1 construct: endogenous in cells
T1 sequence (Q99523 78-831): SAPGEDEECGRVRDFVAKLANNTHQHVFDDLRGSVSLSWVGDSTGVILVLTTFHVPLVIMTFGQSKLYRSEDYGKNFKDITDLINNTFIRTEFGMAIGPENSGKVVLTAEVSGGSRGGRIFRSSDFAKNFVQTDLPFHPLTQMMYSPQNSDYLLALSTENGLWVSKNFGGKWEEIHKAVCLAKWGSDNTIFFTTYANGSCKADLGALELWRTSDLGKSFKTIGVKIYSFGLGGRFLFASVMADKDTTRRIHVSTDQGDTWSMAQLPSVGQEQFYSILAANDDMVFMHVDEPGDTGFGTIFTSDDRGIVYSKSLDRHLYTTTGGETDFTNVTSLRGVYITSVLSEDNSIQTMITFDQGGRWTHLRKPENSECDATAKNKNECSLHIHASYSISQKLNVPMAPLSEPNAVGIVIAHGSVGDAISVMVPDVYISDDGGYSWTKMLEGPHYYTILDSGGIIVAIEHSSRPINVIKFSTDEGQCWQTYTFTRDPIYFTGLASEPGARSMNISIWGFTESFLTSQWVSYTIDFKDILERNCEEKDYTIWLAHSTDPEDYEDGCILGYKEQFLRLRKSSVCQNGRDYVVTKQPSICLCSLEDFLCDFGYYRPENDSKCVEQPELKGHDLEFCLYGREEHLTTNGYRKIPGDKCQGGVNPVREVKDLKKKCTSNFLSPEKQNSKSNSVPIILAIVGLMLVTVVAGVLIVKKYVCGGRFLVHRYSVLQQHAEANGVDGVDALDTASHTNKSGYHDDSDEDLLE
Experiment: uptake of the peptide upon sortilin siRNA
Type: cell-based
Settings: FIG. 6
Description: In vitro testing of the TH19P01 peptide and the TH1902 conjugate compound was conducted.

uptake of the peptide: inhibited upon sortilin siRNA
Substance: Acetyl-GVRAKAGVRN(Nle)FKSESY (Ac-GVRAKAGVRN[Nle]FKSESY) [TH19P01]
